Measured values: US20260242735A1 (UNIVERSIT T BASEL, published 2026)

Assays:
Assay in all cases: alanine scan, flow cytometry;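 further: HEK293-T cells transiently expressing single-residue alanine mutants of CD33 (alanine swapped to serine), antibody binding read by fluorescence in duplicate, background-subtracted, expressed relative to wild-type CD33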
[1] = molecular target: human CD33 S54A (human, UniProt P20138 18-364)
[2] = molecular target: human CD33 L92A (human, UniProt P20138 18-364)
[3] = molecular target: human CD33 Y50A (human, UniProt P20138 18-364)
[4] = molecular target: human CD33 Y49A (human, UniProt P20138 18-364)
[5] = molecular target: human CD33 C36A (human, UniProt P20138 18-364)
[6] = molecular target: human CD33 A65S (human, UniProt P20138 18-364)
[7] = molecular target: human CD33 G34A (human, UniProt P20138 18-364)
[8] = molecular target: human CD33 Y59A (human, UniProt P20138 18-364)
[9] = molecular target: human CD33 K52A (human, UniProt P20138 18-364)
[10] = molecular target: human CD33 R69A (human, UniProt P20138 18-364)
[11] = molecular target: human CD33 T75A (human, UniProt P20138 18-364)
[12] = molecular target: human CD33 I66A (human, UniProt P20138 18-364)
[13] = molecular target: human CD33 E63A (human, UniProt P20138 18-364)
[14] = molecular target: human CD33 G64A (human, UniProt P20138 18-364)
[15] = molecular target: human CD33 V56A (human, UniProt P20138 18-364)
[16] = molecular target: human CD33 P55A (human, UniProt P20138 18-364)
[17] = molecular target: human CD33 D18A (human, UniProt P20138 19-364)
[18] = molecular target: human CD33 G58A (human, UniProt P20138 18-364)
[19] = molecular target: human CD33 Q32A (human, UniProt P20138 18-364)
[20] = molecular target: human CD33 R91A (human, UniProt P20138 18-364)
[21] = molecular target: human CD33 T30A (human, UniProt P20138 18-364)
[22] = molecular target: human CD33 Q80A (human, UniProt P20138 18-364)
[23] = molecular target: human CD33 F21A (human, UniProt P20138 18-364)
[24] = molecular target: human CD33 E85A (human, UniProt P20138 18-364)
[25] = molecular target: human CD33 V31A (human, UniProt P20138 18-364)
[26] = molecular target: human CD33 P46A (human, UniProt P20138 18-364)
[27] = molecular target: human CD33 I47A (human, UniProt P20138 18-364)
[28] = molecular target: human CD33 F43A (human, UniProt P20138 18-364)
[29] = molecular target: human CD33 S28A (human, UniProt P20138 18-364)
[30] = molecular target: human CD33 Q26A (human, UniProt P20138 18-364)
[31] = molecular target: human CD33 V73A (human, UniProt P20138 18-364)
[32] = molecular target: human CD33 V82A (human, UniProt P20138 18-364)
[33] = molecular target: human CD33 E33A (human, UniProt P20138 18-364)
[34] = molecular target: human CD33 R89A (human, UniProt P20138 18-364)
[35] = molecular target: human CD33 P40A (human, UniProt P20138 18-364)
[36] = molecular target: human CD33 P72A (human, UniProt P20138 18-364)
[37] = molecular target: human CD33 E27A (human, UniProt P20138 18-364)
[38] = molecular target: human CD33 P48A (human, UniProt P20138 18-364)
[39] = molecular target: human CD33 S71A (human, UniProt P20138 18-364)
[40] = molecular target: human CD33 G88A (human, UniProt P20138 18-364)
[41] = molecular target: human CD33 R62A (human, UniProt P20138 18-364)

Chain of human CD33 S71A (P20138 18-364 S71A limits assumed): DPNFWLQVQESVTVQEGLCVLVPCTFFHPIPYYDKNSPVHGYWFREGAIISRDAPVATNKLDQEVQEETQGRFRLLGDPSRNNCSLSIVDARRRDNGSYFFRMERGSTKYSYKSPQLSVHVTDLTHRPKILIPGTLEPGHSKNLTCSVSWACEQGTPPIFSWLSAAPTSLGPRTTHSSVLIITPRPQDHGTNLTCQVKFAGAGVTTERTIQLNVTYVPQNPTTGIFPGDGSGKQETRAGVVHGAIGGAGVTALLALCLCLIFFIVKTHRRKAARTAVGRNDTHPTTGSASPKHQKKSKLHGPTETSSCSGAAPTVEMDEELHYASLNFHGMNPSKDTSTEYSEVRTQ
Chain of human CD33 P40A (P20138 18-364 P40A limits assumed): as the sequence (P20138 18-364 S71A limits assumed) above, with P23A, A54S counted along it
Chain of human CD33 V82A (P20138 18-364 V82A limits assumed): as the sequence (P20138 18-364 S71A limits assumed) above, with A54S, V65A counted along it
Chain of human CD33 S54A (P20138 18-364 S54A limits assumed): as the sequence (P20138 18-364 S71A limits assumed) above, with S37A, A54S counted along it
Chain of human CD33 P72A (P20138 18-364 P72A limits assumed): as the sequence (P20138 18-364 S71A limits assumed) above, with A54S, P55A counted along it
Chain of human CD33 I66A (P20138 18-364 I66A limits assumed): as the sequence (P20138 18-364 S71A limits assumed) above, with I49A, A54S counted along it
Chain of human CD33 V56A (P20138 18-364 V56A limits assumed): as the sequence (P20138 18-364 S71A limits assumed) above, with V39A, A54S counted along it
Chain of human CD33 P46A (P20138 18-364 P46A limits assumed): as the sequence (P20138 18-364 S71A limits assumed) above, with P29A, A54S counted along it
Chain of human CD33 Q32A (P20138 18-364 Q32A limits assumed): as the sequence (P20138 18-364 S71A limits assumed) above, with Q15A, A54S counted along it
Chain of human CD33 P55A (P20138 18-364 P55A limits assumed): as the sequence (P20138 18-364 S71A limits assumed) above, with P38A, A54S counted along it
Chain of human CD33 Y50A (P20138 18-364 Y50A limits assumed): as the sequence (P20138 18-364 S71A limits assumed) above, with Y33A, A54S counted along it
Chain of human CD33 K52A (P20138 18-364 K52A limits assumed): as the sequence (P20138 18-364 S71A limits assumed) above, with K35A, A54S counted along it
Chain of human CD33 F21A (P20138 18-364 F21A limits assumed): as the sequence (P20138 18-364 S71A limits assumed) above, with F4A, A54S counted along it
Chain of human CD33 G34A (P20138 18-364 G34A limits assumed): as the sequence (P20138 18-364 S71A limits assumed) above, with G17A, A54S counted along it

B1: Refmab #3 (antibody, V domains shown)
VH: QVQLVQSGAEVKKPGSSVKVSCKASGYTFTDYNMHWVRQAPGQGLEWIGYIYPYNGGTGYNQKFKSKATITADESTNTAYMELSSLRSEDTAVYYCARGRPAMDYWGQGTLVTVSS
VL: DIQMTQSPSSLSASVGDRVTITCRASESVDNYGISFMNWFQQKPGKAPKLLIYAASNQGSGVPSRFSGSGSGTDFTLTISSLQPDDFATYYCQQSKEVPWTFGQGTKVEIK
notes: Full-length format is human IgG1 Fc silent (PG-LALA); The alanine scan used IgG or Fab
Mean % WT Binding [1]: 106 % WT | Mean % WT Binding [2]: 129 % WT | Mean % WT Binding [3]: 109 % WT | Mean % WT Binding [4]: 86.6 % WT | Mean % WT Binding [5]: 102 % WT | Mean % WT Binding [6]: 143 % WT | Mean % WT Binding [7]: 99.4 % WT | Mean % WT Binding [8]: 145 % WT | Mean % WT Binding [9]: 80.3 % WT | Mean % WT Binding [10]: 188 % WT | Mean % WT Binding [11]: 118 % WT | Mean % WT Binding [12]: 126 % WT | Mean % WT Binding [13]: 124 % WT | Mean % WT Binding [14]: 96.6 % WT | Mean % WT Binding [15]: 42.6 % WT | Mean % WT Binding [16]: 142 % WT | Mean % WT Binding [17]: 37.8 % WT | Mean % WT Binding [18]: 87.4 % WT | Mean % WT Binding [19]: 133 % WT | Mean % WT Binding [20]: 150 % WT | Mean % WT Binding [21]: 104 % WT | Mean % WT Binding [22]: 123 % WT | Mean % WT Binding [23]: 13.6 % WT | Mean % WT Binding [24]: 112 % WT | Mean % WT Binding [25]: 127 % WT | Mean % WT Binding [26]: 8.8 % WT | Mean % WT Binding [27]: 165 % WT | Mean % WT Binding [28]: 49.3 % WT | Mean % WT Binding [29]: 193 % WT | Mean % WT Binding [30]: 124 % WT | Mean % WT Binding [31]: 149 % WT | Mean % WT Binding [32]: 141 % WT | Mean % WT Binding [33]: 94.9 % WT | Mean % WT Binding [34]: 126 % WT | Mean % WT Binding [35]: 122 % WT | Mean % WT Binding [36]: 108 % WT | Mean % WT Binding [37]: 153 % WT | Mean % WT Binding [38]: 167 % WT | Mean % WT Binding [39]: 118 % WT | Mean % WT Binding [40]: 88.3 % WT | Mean % WT Binding [41]: 91.8 % WT
